Molecular target: PspB-T25 fusion (Y. enterocolitica PspB with Cya-T25 fused to its C-terminus) (Y. enterocolitica)
Assay: two-hybrid

**Q.** “PspA-T18 fusion (Y. enterocolitica PspA with Cya-T18 fused to its C-terminus) (from UniProt Q9F4H4 1-221) (natural protein)” was tested. Which beta-galactosidase activity did it give?
**A.** 1470 Miller units

Reference: PMC2966024
